# From publication PMC9618136 (2022)
# B1: OsExo70F2, N-terminally truncated, purified (domain or fragment)
# chain: ISAAAFDAAEQLIQVWDGTPEALVFEATEDEVAEYLSAVDVAIEHLARGSGGGAGGAGSSSSSTAGRAGVAVQLAMARLEEELRHLMVRHAVPLDPTGLFFSLRRLSLGSMDDLDTSSEFDAATPHSIDVAPETARGGPLVNPFEDQVFDPVRPEAVDDLRAIADRMARAGYSRELADAYCGIRRDLLDEYLSALGVERLSIDEVQRIEWKHLNDKMKKWVQAVKTVVRVLLAGERRLCDQVLSVSDELREECFIESTKGCIMQILSFGDAVAVCPRSPEKLSRILDMYEALAEVIPEMKDLCLGSSGDGVISDVQANLDRLGDAIRGTLFEFGKVLQLESSRRAMTAGEIHPMTRYVMNYLRLLVVYSDTLDALLDDNADDQIDLARAEDQDQEHLESMTPLGKRLLKLISYLEANLEEKSKLYEDSALECIFSMNNLLYIVQKVRDSELGKILGDHWVKRRNGKIRQYSKSYLRISWMKVLSFLKDDGHGSGSGSSSGSGSGHSSSRMSIKEKFKNFNLAFEEIYRNQTTWKVPDPQLREELKISISENVIPAYRAFLGRYGSQVDGGRNSGKYIKYTPEDLESQLSDLFEGAPGPANHSRRRT
# Target: AVR-Pii effector domain (residues 20 to 70), purified (Magnaporthe oryzae)
# Experiment: ITC
binder,measurement,value
B1,Kd,< 1 nM
